The term stoichiometry N denotes the number of molecules, sites or subunits per partner or assembly.

The assay addresses recombinant human cartilage oligomeric matrix protein (COMP) (human) (UniProt P49747). Briefly: atomic force microscopy.

Chain of recombinant human cartilage oligomeric matrix protein (COMP), P49747 21-757 (natural protein; other documents disagree on this pair) (P49747 21-757): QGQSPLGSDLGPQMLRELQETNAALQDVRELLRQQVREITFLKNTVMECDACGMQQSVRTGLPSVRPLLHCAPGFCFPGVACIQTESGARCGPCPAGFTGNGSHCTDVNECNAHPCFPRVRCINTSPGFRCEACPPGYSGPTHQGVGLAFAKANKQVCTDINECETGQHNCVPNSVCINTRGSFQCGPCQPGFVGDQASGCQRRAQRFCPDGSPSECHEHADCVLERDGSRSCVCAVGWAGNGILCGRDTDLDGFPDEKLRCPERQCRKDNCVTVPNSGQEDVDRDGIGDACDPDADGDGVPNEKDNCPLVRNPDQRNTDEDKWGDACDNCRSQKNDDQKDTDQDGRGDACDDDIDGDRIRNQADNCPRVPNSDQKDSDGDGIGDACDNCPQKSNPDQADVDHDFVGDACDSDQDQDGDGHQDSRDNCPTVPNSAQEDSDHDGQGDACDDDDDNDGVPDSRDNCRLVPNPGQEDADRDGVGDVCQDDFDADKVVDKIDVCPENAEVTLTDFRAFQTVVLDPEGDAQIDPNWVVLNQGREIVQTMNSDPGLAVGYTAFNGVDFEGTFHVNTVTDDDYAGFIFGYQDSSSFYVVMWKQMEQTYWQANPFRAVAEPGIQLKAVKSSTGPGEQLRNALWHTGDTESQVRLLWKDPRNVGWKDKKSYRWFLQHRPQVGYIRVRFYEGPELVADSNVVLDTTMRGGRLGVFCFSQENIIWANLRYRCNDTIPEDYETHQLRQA

Consider “recombinant human cartilage oligomeric matrix protein (COMP), P49747 21-757 (natural protein; other documents disagree on this pair)”, for which the stoichiometry N was 5.

The values are drawn from publication PMC7238435.
